Reference: publication PMC4513855

What was measured:
VirE2 = biological target: T1, VirE2 (Agrobacterium tumefaciens (nopaline …, UniProt P08062 1-556)); assay: SPRi
T1 sequence: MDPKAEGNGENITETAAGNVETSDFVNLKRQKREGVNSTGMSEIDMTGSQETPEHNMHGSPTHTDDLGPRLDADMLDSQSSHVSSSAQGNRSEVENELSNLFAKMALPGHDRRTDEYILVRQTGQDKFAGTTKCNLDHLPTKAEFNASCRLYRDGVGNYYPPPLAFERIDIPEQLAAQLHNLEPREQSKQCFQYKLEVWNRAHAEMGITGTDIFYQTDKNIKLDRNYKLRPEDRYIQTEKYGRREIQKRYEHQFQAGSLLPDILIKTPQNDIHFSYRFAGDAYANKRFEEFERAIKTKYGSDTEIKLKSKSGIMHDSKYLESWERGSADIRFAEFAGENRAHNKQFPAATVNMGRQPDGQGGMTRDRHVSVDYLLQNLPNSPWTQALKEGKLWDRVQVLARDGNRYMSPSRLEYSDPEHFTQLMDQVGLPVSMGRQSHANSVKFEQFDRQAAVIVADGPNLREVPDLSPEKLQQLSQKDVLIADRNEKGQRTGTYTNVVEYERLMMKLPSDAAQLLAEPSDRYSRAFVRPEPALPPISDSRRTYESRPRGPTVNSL

[1] = biological target: T2, VirE2 (co-expressed with VirE1);VirE1 (Agrobacterium tumefaciens (nopaline …, UniProt P08062;P08063 1-556;1-63, |)); assay: SPRi
T2 sequence 1: T1 sequence
T2 sequence 2: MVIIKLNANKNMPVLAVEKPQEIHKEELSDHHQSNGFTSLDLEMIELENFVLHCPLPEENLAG

B1: ssT40 (poly-T 40-mer) (ssDNA)
DNA: TTTTTTTTTTTTTTTTTTTTTTTTTTTTTTTTTTTTTTTT
modifications: 5' C6-thiol
binding result (VirE2): binds
binding result [1]: binds
